In patent publication US20160367623A1, “AGONISTS OF GUANYLATE CYCLASE USEFUL FOR THE TREATMENT OF GASTROINTESTINAL DISORDERS, INFLAMMATION, CANCER AND OTHER DISORDERS” (priority 2015, published 2016):
Bridge positions count the residues as written; N and C are the ends. Ends that are not written are not given here.

Tested on: patients with chronic idiopathic constipation (CIC)
Assay: Second phase 3 CIC trial: treatment emergent adverse events, safety

## Asn^1-Asp^2-Glu^3-Cys^4-Glu^5-Leu^6-Cys^7-Val^8-Asn^9-Val^10-Ala^11-Cys^12-Thr^13-Gly^14-Cys^15-Leu^16 (NDECELCVNVACTGCL; disulfide 4-12, 7-15) [Plecanatide]
Active Combined (N = 936)
  Influenza like illness: events E: 1
  Influenza like illness: patients %: (0.1) %
  Influenza like illness: patients (%): (0.1) %
  Influenza like illness: patients N: 1
  Influenza: events E: 9
  Influenza: patients %: (1.0) %
  Influenza: patients N: 9
  Injury, poisoning and procedural complications (SOC): events E: 19
  Injury, poisoning and procedural complications (SOC): patients %: (1.7) %
  Injury, poisoning and procedural complications (SOC): patients N: 16
  Insomnia, events E: 3
  Insomnia, patients (%): (0.3) %
  Insomnia, patients N: 3
  Intervertebral disc disorder, Mild: events E: 0
  Intervertebral disc disorder, Mild: patients N: 0
  Intervertebral disc disorder, Moderate: events E: 0
  Ligament sprain, events E: 2
  Ligament sprain, patients (%): (0.2) %
  Ligament sprain, patients N: 2
  Musculoskeletal and connective tissue disorders [System Organ Class], events E: 19
  Musculoskeletal and connective tissue disorders [System Organ Class], patients (%): (2.0) %
  Musculoskeletal and connective tissue disorders [System Organ Class], patients N: 19
  Musculoskeletal and connective tissue disorders, Mild: events E: 10
  Musculoskeletal and connective tissue disorders, Mild: patients (%): (1.1) %
  Musculoskeletal and connective tissue disorders, Mild: patients N: 10
  Musculoskeletal and connective tissue disorders, Moderate: events E: 9
  Musculoskeletal and connective tissue disorders, Moderate: patients (%): (1.0) %
  Musculoskeletal and connective tissue disorders, Moderate: patients N: 9
  Musculoskeletal and connective tissue disorders, Severe: events E: 0
  Musculoskeletal and connective tissue disorders, Severe: patients N: 0
  Musculoskeletal and connective tissue disorders: events E: 19
  Musculoskeletal and connective tissue disorders: patients (%): (2.0) %
  Musculoskeletal and connective tissue disorders: patients N: 19
  Musculoskeletal chest pain, Mild: events E: 1
  Musculoskeletal chest pain, Mild: patients (%): (0.1) %
  Musculoskeletal chest pain, Mild: patients N: 1
  Musculoskeletal chest pain, Moderate: events E: 0
  Musculoskeletal chest pain, Moderate: patients N: 0
  Musculoskeletal chest pain, Severe: events E: 0
  Musculoskeletal chest pain, Severe: patients N: 0
  Musculoskeletal chest pain: events E: 1
  Musculoskeletal chest pain: patients (%): (0.1) %
  Musculoskeletal chest pain: patients N: 1
  Musculoskeletal pain, Mild: events E: 1
  Musculoskeletal pain, Mild: patients (%): (0.1) %
  Musculoskeletal pain, Mild: patients N: 1
  Musculoskeletal pain, Moderate: events E: 1
  Musculoskeletal pain, Moderate: patients (%): (0.1) %
  Musculoskeletal pain, Moderate: patients N: 1
  Musculoskeletal pain, Severe: events E: 0
  Musculoskeletal pain, Severe: patients N: 0
  Musculoskeletal pain: events E: 2
  Musculoskeletal pain: patients (%): (0.2) %
  Musculoskeletal pain: patients N: 2
  SAE Musculoskeletal and connective tissue disorders, E events: 0
  SAE Musculoskeletal and connective tissue disorders, N patients: 0
  SAE Musculoskeletal and connective tissue disorders, No Reasonable Possibility, E events: 0
  SAE Musculoskeletal and connective tissue disorders, No Reasonable Possibility, N patients: 0
  SAE Musculoskeletal and connective tissue disorders, Reasonable Possibility, E events: 0
  SAE Musculoskeletal and connective tissue disorders, Reasonable Possibility, N patients: 0
  Skeletal injury, events E: 1
  Skeletal injury, patients (%): (0.1) %
  Skeletal injury, patients N: 1
  TE SAE: Musculoskeletal and connective tissue disorders, E events: 0
  TE SAE: Musculoskeletal and connective tissue disorders, N patients: 0
  TEAE Leading to Discontinuation: Infections and infestations, % patients: (0.1) %
  TEAE Leading to Discontinuation: Infections and infestations, E events: 1
  TEAE Leading to Discontinuation: Infections and infestations, N patients: 1
  TEAE Leading to Discontinuation: Musculoskeletal and connective tissue disorders, E events: 0
  TEAE Leading to Discontinuation: Musculoskeletal and connective tissue disorders, N patients: 0
  TEAE Leading to Discontinuation: Viral infection, % patients: (0.1) %
  TEAE Leading to Discontinuation: Viral infection, E events: 1
  TEAE Leading to Discontinuation: Viral infection, N patients: 1
Plecanatide 3 mg (N = 467)
  Musculoskeletal and connective tissue disorders [System Organ Class], events E: 8
  Musculoskeletal and connective tissue disorders [System Organ Class], patients (%): (1.7) %
  Musculoskeletal and connective tissue disorders [System Organ Class], patients N: 8
  Musculoskeletal and connective tissue disorders, Mild: events E: 4
  Musculoskeletal and connective tissue disorders, Mild: patients (%): (0.9) %
  Musculoskeletal and connective tissue disorders, Mild: patients N: 4
  Musculoskeletal and connective tissue disorders, Moderate: events E: 4
  Musculoskeletal and connective tissue disorders, Moderate: patients (%): (0.9) %
  Musculoskeletal and connective tissue disorders, Moderate: patients N: 4
  Musculoskeletal and connective tissue disorders, Severe: events E: 0
  Musculoskeletal and connective tissue disorders, Severe: patients N: 0
  Musculoskeletal and connective tissue disorders: events E: 8
  Musculoskeletal and connective tissue disorders: patients (%): (1.7) %
  Musculoskeletal and connective tissue disorders: patients N: 8
  Musculoskeletal chest pain, Mild: events E: 1
  Musculoskeletal chest pain, Mild: patients (%): (0.2) %
  Musculoskeletal chest pain, Mild: patients N: 1
  Musculoskeletal chest pain, Moderate: events E: 0
  Musculoskeletal chest pain, Moderate: patients N: 0
  Musculoskeletal chest pain, Severe: events E: 0
  Musculoskeletal chest pain, Severe: patients N: 0
  Musculoskeletal chest pain: events E: 1
  Musculoskeletal chest pain: patients (%): (0.2) %
  Musculoskeletal chest pain: patients N: 1
  Musculoskeletal pain, Mild: events E: 1
  Musculoskeletal pain, Mild: patients (%): (0.2) %
  Musculoskeletal pain, Mild: patients N: 1
  Musculoskeletal pain, Moderate: events E: 0
  Musculoskeletal pain, Moderate: patients N: 0
  Musculoskeletal pain, Severe: events E: 0
  Musculoskeletal pain, Severe: patients N: 0
  Musculoskeletal pain: events E: 1
  Musculoskeletal pain: patients (%): (0.2) %
  Musculoskeletal pain: patients N: 1
  Skeletal injury, events E: 0
  Skeletal injury, patients N: 0
  TE SAE: Musculoskeletal and connective tissue disorders, E events: 0
  TE SAE: Musculoskeletal and connective tissue disorders, N patients: 0
  TEAE Leading to Discontinuation: Musculoskeletal and connective tissue disorders, E events: 0
  TEAE Leading to Discontinuation: Musculoskeletal and connective tissue disorders, N patients: 0
Plecanatide 6 mg (N = 469)
  Musculoskeletal and connective tissue disorders [System Organ Class], events E: 11
  Musculoskeletal and connective tissue disorders [System Organ Class], patients (%): (2.3) %
  Musculoskeletal and connective tissue disorders [System Organ Class], patients N: 11
  Musculoskeletal and connective tissue disorders, Mild: events E: 6
  Musculoskeletal and connective tissue disorders, Mild: patients (%): (1.3) %
  Musculoskeletal and connective tissue disorders, Mild: patients N: 6
  Musculoskeletal and connective tissue disorders, Moderate: events E: 5
  Musculoskeletal and connective tissue disorders, Moderate: patients (%): (1.1) %
  Musculoskeletal and connective tissue disorders, Moderate: patients N: 5
  Musculoskeletal and connective tissue disorders, Severe: events E: 0
  Musculoskeletal and connective tissue disorders, Severe: patients N: 0
  Musculoskeletal and connective tissue disorders: events E: 11
  Musculoskeletal and connective tissue disorders: patients (%): (2.3) %
  Musculoskeletal and connective tissue disorders: patients N: 11
  Musculoskeletal chest pain, Mild: events E: 0
  Musculoskeletal chest pain, Mild: patients N: 0
  Musculoskeletal chest pain, Moderate: events E: 0
  Musculoskeletal chest pain, Moderate: patients N: 0
  Musculoskeletal chest pain, Severe: events E: 0
  Musculoskeletal chest pain, Severe: patients N: 0
  Musculoskeletal chest pain: events E: 0
  Musculoskeletal chest pain: patients N: 0
  Musculoskeletal pain, Mild: events E: 0
  Musculoskeletal pain, Mild: patients N: 0
  Musculoskeletal pain, Moderate: events E: 1
  Musculoskeletal pain, Moderate: patients (%): (0.2) %
  Musculoskeletal pain, Moderate: patients N: 1
  Musculoskeletal pain, Severe: events E: 0
  Musculoskeletal pain, Severe: patients N: 0
  Musculoskeletal pain: events E: 1
  Musculoskeletal pain: patients (%): (0.2) %
  Musculoskeletal pain: patients N: 1
  Skeletal injury, events E: 1
  Skeletal injury, patients (%): (0.2) %
  Skeletal injury, patients N: 1
  TE SAE: Musculoskeletal and connective tissue disorders, E events: 0
  TE SAE: Musculoskeletal and connective tissue disorders, N patients: 0
  TEAE Leading to Discontinuation: Musculoskeletal and connective tissue disorders, E events: 0
  TEAE Leading to Discontinuation: Musculoskeletal and connective tissue disorders, N patients: 0
